In patent US20140274782A1, “AFFINITY REAGENTS AND METHODS FOR DETECTION, PURIFICATION, AND PROTEOMIC ANALYSIS OF METHYLATED PROTEINS” (The Board of Trustees of the Leland Stanford Junior …, priority 2013, published 2014):

Tests used:
[1] = target: T1, G9a and GLP (Homo sapiens, UniProt Q96KQ7+Q9H9B1); test: Triple SILAC pull-down after UNC0638 treatment of 293T cells, DMSO/UNC0638 ratio of protein captured by 3×MBT; type: cell-based; details: for Relative to UNC0638 UNC Heavy: UNC0638 in heavy SILAC media; for Relative to UNC0638 UNC Light: UNC0638 in light SILAC media; for Relative to UNC0638 Average: average of UNC Light and UNC Heavy experiments; for Protein Ratios DMSO/UNC0638: SILAC ratio of protein captured by 3xMBT, 293T cells treated 24 hours with UNC0638 at 2.5 μM or DMSO;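 on all read-outs here: mass spectrometry (Q-Exactive) SILAC quantitation, DMSO/UNC0638 ratio computed after subtracting 3×MBTD355N mutant pull-down background, only proteins with at least twofold 3×MBT over mutant signal considered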
T1 construct: endogenous in cells; host or cells: HEK 293T
T1 sequence (Q96KQ7 2-1210 limits assumed): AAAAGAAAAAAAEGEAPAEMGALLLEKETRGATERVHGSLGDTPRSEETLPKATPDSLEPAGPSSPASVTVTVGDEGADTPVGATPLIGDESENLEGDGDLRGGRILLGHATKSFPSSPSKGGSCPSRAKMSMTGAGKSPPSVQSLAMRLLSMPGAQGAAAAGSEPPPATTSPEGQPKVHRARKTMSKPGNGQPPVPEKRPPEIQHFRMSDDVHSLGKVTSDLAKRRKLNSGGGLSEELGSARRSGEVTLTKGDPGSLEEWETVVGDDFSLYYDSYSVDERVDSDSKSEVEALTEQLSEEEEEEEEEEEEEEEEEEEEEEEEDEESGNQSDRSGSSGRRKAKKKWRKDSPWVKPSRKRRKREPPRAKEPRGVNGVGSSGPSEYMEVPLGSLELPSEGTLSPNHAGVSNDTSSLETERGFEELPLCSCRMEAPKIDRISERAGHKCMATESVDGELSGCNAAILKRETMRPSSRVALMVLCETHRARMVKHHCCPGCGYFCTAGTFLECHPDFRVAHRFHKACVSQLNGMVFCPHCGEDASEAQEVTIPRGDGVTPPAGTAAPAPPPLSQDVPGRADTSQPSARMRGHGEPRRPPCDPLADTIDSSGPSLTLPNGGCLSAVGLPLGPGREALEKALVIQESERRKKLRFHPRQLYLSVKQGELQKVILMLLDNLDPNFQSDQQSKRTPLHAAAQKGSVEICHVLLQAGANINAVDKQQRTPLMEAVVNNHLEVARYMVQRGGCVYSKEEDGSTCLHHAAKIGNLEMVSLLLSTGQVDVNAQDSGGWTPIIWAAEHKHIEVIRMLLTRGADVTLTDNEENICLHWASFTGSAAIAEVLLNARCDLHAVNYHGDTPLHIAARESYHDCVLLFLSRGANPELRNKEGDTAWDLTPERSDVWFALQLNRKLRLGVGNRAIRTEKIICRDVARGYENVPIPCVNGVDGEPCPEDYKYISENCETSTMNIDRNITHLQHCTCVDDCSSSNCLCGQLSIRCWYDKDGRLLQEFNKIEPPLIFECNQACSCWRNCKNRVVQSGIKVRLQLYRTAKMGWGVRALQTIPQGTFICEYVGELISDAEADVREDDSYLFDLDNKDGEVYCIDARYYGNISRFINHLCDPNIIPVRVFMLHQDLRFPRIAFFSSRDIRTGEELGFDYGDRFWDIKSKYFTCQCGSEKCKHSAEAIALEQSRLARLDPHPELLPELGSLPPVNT
T1 sequence (Q9H9B1 2-1298 limits assumed): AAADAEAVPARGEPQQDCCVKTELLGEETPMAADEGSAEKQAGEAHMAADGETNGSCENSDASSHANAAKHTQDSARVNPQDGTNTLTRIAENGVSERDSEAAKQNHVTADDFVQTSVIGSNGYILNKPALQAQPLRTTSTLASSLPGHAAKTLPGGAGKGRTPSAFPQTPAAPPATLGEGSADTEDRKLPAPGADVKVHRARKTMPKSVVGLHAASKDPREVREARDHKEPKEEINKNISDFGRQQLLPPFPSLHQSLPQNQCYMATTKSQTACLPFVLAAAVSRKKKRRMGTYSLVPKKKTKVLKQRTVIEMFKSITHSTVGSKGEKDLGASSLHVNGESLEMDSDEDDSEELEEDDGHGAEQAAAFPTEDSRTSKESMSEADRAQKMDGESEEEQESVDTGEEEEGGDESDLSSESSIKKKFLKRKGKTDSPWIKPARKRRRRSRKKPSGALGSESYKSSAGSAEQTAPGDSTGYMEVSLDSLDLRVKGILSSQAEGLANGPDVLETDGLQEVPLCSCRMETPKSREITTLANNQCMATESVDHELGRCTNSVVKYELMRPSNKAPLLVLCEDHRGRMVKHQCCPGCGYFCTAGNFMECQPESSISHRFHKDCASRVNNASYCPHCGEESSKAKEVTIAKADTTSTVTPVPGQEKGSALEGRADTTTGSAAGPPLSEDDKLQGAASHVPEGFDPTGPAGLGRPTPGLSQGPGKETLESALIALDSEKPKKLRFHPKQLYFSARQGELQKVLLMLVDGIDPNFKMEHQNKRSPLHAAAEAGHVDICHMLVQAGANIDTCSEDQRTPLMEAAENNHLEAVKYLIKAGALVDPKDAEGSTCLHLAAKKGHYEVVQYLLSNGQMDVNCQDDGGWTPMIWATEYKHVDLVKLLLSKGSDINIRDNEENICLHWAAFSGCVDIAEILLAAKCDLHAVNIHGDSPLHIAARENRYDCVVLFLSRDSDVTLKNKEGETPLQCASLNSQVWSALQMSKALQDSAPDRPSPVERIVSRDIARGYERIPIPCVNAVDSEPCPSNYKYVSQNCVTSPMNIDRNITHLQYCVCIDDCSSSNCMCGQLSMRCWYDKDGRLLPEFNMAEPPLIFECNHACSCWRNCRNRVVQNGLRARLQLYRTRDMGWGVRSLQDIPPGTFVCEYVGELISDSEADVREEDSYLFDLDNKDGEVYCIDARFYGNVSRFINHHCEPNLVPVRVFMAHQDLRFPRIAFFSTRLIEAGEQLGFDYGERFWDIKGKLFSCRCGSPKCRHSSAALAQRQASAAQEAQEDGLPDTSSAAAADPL

[2] = system: 3×MBT domain of L3MBTL1; test: Triple SILAC pull-down, 3xMBT/3xMBTD355N ratio (cytoplasmic, nuclear and chromatin fractions of 293T cells); type: binding, human; details: for 3xMBT/D355N UNC Heavy: experiment with UNC0638 in heavy SILAC media; for 3xMBT/D355N UNC Light: experiment with UNC0638 in light SILAC media; for Protein Ratios 3xMBT/D355N: pull-down by 3xMBT vs 3xMBTD355N;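 on all read-outs here: proteins quantified with MaxQuant, requiring at least two unique peptides and quantification in both label directions, normalized to the mean of proteins from a digested loading control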
[3] = SILAC ratio DMSO/UNC0638 of protein pulled down with 3xMBT
[4] = SILAC ratio, pull-down 3xMBT vs 3xMBTD355N
[5] = SILAC ratio DMSO relative to UNC0638, pull-down with 3xMBT, all values in log base 2
[6] = SILAC ratio 3xMBT vs 3xMBTD355N pull-down, 293T cells, all values in log base 2

Substance	Relative to UNC0638 UNC Heavy [1, 3] [log base 2]	Relative to UNC0638 UNC Light [1, 3] [log base 2]	Relative to UNC0638 Average [1] [log base 2]	3xMBT/D355N UNC Heavy [2, 4] [log base 2]	3xMBT/D355N UNC Light [2, 4] [log base 2]	Relative to UNC0638 UNC Heavy [1, 5] [log base 2]	Relative to UNC0638 UNC Light [1, 5] [log base 2]	Relative to UNC0638 Average ([1]; all values in log base 2) [log base 2]	3xMBT/D355N UNC Heavy [2, 6] [log base 2]	3xMBT/D355N UNC Light [2, 6] [log base 2]	Protein Ratios DMSO/UNC0638 [1]	Protein Ratios 3xMBT/D355N ([2]; SILAC ratio, 293T cells)
HNRNPAB	0.09	0.32	0.20	4.00	4.21							
DHX9	0.08	0.28	0.18	3.27	3.53							
ANXA2						0.38	−0.31	0.04	2.86	2.78		
MK167	0.61	−0.25	0.18	2.59	2.26							
CAMK2D	0.26	0.27	0.27	1.96	2.82							
Clathrin heavy chain 1											1.4	6.0
XRCC5	0.14	0.17	0.15	2.15	2.80							
USP10	0.57	−0.05	0.26	2.00	2.13							
60S ribosomal protein L5											1.4	2.3
EPRS						−0.64	0.63	−0.01	0.46	1.98		
PABPC1	0.04	0.26	0.15	2.91	3.44							
